Results taken from patent US20240352434, “COMPOSITIONS COMPRISING A VARIANT CAS12I3 POLYPEPTIDE AND USES THEREOF” (Arbor Biotechnologies, Inc., published 2024).
Where a chain is given by its changes, count along the chain named.

T1: Cas12i3 S536R K583R N711R C724R (Unidentified, S536R,K583R,N711R,C724R)
T1 chain: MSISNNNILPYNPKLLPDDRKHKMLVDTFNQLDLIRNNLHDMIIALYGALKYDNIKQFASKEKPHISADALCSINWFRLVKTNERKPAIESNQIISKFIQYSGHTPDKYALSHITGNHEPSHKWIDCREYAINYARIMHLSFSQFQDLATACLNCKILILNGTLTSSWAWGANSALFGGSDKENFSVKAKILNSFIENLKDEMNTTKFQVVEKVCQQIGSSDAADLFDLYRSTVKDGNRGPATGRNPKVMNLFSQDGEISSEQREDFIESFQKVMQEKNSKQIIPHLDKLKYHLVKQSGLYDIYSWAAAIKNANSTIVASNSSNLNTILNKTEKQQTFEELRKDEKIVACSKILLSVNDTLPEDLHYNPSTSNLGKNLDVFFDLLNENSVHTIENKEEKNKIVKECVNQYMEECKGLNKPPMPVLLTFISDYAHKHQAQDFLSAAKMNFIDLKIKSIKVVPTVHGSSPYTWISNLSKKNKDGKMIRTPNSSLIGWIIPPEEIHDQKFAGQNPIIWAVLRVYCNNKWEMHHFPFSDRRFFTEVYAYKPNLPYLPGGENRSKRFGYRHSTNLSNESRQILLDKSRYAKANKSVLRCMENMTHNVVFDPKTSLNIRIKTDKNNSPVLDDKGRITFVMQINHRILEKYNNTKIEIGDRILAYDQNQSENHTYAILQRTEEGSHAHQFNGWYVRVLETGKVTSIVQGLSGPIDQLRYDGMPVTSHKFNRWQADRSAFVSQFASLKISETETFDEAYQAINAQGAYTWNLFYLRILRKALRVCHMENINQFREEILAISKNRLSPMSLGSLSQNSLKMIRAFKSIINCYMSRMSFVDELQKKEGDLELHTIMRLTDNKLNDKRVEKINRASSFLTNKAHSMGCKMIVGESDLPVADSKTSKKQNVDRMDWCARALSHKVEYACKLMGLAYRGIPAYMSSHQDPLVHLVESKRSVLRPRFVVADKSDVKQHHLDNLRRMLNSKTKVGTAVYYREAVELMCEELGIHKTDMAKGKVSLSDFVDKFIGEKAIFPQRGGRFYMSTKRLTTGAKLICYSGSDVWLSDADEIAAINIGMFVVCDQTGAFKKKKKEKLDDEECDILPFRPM

T2: Cas12i3 S536R N711R S801R (Unidentified, S536R,N711R,S801R)
T2 chain: T1 chain with R583K, R724C, S801R

B1: VEGFA_T2 crRNA ; VEGFA_T2 target (ssRNA ; dsDNA)
RNA: AUAGUGUGUCCUUAGUUGACAUAAUCCUCCACCAGUCAUGGU
DNA 1: AATCCTCCACCAGTCATGGT
DNA 2: ACCATGACTGGTGGAGGATT
B2: AAVS1_T3 crRNA ; AAVS1_T3 target (ssRNA ; dsDNA)
RNA: AUAGUGUGUCCUUAGUUGACAUGUGAGAAUGGUGCGUCCUAG
DNA 1: GTGAGAATGGTGCGTCCTAG
DNA 2: CTAGGACGCACCATTCTCAC
B3: EMX1_T5 crRNA ; EMX1_T5 target (ssRNA ; dsDNA)
RNA: AUAGUGUGUCCUUAGUUGACAUUAUUAUUCCCAUAGGGAAGG
DNA 1: TATTATTCCCATAGGGAAGG
DNA 2: CCTTCCCTATGGGAATAATA

Biological target: T1, Cas12i3 S536R K583R N711R C724R
Test: cell_activity; fold change in % indels, HEK293T; PAM not stated in example
Description: (§1) Approximately 16 hours prior to transfection, 100 μl of 25,000 HEK293T cells in DMEM/10% FBS+Pen/Strep were plated into each well of a 96-well plate. On the day of transfection, the cells were 70-90% confluent. For each well to be transfected, a mixture of 0.5 μl of Lipofectamine 2000 and 9.5 μl of Opti-MEM was prepared and then incubated at room temperature for 5-20 minutes (Solution 1). […] In the case of negative controls, the crRNA was not included in Solution 2. The solution 1 and solution 2 mixtures were mixed by pipetting up and down and then incubated at room temperature for 25 minutes. Following incubation, 20 μL of the Solution 1 and Solution 2 mixture were added dropwise to each well of a 96 well plate containing the cells. 72 hours post transfection, cells are trypsinized by adding 10 μL of TrypLE to the center of each well and incubated for approximately 5 minutes. 100 μL of D10 media was then added to each well and mixed to resuspend cells. The cells were then spun down at 500 g for 10 minutes, and the supernatant was discarded. QuickExtract buffer was added to ⅕ the amount of the original cell suspension volume. Cells were incubated at 65° C. for 15 minutes, 68° C. for 15 minutes, and 98° C. for 10 minutes.
(§2) Samples for Next Generation Sequencing were prepared by two rounds of PCR. The first round (PCR1) was used to amplify specific genomic regions depending on the target. PCR1 products were purified by column purification. Round 2 PCR (PCR2) was done to add Illumina adapters and indexes. Reactions were then pooled and purified by column purification. Sequencing runs were done with a 150 cycle NextSeq v2.5 mid or high output kit.

| Binder | binding signal |
| --- | --- |
| B1 | 1.1 fold of wild-type |
| B2 | 0.8 fold of wild-type |
| B3 | 0.72 fold of wild-type |

Biological target: T2, Cas12i3 S536R N711R S801R
Test: as above
Description: as §1, §2

| Binder | binding signal |
| --- | --- |
| B1 | 2.55 fold of wild-type |
| B2 | 2.1 fold of wild-type |
| B3 | 1.68 fold of wild-type |
